Experimental findings from patent publication US20250263469A1 are described below.

The test deals with SARS-CoV-2 Spike on pseudotyped virus (PsV) (SARS-CoV-2) (UniProt P0DTC2). Description: cell-based or functional assay.

In turn, “REGN10933 (recombinant mAb, reference IgG) (antibody)” registered a Median IC50, SARS-CoV-2 PsV neutralization of 0.0044 µg/mL.

In turn, “REGN10987 (recombinant mAb, reference IgG) (antibody)” yielded a Median IC50, SARS-CoV-2 PsV neutralization of 0.03 µg/mL.
